Measurements reported in publication PMC8154232.

Assays:
[1] = biological target: p50-RHR homodimer (mouse, UniProt P25799 39-363); assay: NMR
[2] = biological target: p50-NTD (mouse, UniProt P25799 39-245); assay: NMR
Sequence of p50-NTD (P25799 39-245): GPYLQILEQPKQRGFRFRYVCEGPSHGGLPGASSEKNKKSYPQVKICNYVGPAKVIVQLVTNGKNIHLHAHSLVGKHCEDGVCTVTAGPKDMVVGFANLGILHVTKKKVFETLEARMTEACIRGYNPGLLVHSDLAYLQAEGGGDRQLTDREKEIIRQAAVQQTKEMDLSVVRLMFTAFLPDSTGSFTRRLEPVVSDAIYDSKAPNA

Sequence of p50-RHR homodimer (P25799 39-363): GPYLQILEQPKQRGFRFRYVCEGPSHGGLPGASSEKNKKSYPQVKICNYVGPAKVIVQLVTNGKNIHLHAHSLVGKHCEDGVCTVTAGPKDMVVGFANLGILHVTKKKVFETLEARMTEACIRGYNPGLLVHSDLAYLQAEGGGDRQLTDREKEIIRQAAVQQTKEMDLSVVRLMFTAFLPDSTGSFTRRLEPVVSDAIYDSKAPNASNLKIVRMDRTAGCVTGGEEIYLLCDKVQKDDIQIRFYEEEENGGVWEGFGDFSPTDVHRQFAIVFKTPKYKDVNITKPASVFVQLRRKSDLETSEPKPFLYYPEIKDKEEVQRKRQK

| Binder | binding result [1] | binding result [2] |
| --- | --- | --- |
| full-kB (14-mer) (dsDNA) DNA 1: TCGGGAATTCCCGA DNA 2: TCGGGAATTCCCGA | binds | binds |
| half-kB (18-mer) (dsDNA) DNA 1: TTCGGGAAATAGAAACTC DNA 2: GAGTTTCTATTTCCCGAA | – | binds |
| half-kBL (21-mer) (dsDNA) DNA 1: CTTCGGGAAATAGAAACTCTC DNA 2: GAGAGTTTCTATTTCCCGAAG | – | binds |
